Test results reported in the supplement of paper PMC9170038.

Test system: MS2 coat protein
Assay: apparent KD of MS2 coat protein; designed switch direction (-1 OFF switch, 1 ON switch): -1; higher = weaker reporter binding
Outline: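 Designed RNA switches with common flanks were made on Illumina chips by stalled E. coli RNA polymerase. Titration with SNAP-549-labelled MS2 coat protein doubled from 0.7 or 1.5 nM up to 3 µM. Apparent KD is each design's median over clusters after curve-fitting normalised fluorescence.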

[1] = Eterna round: R95, input ligand: microRNA oligo, concentration not stated
[2] = input ligand: microRNA oligo, concentration not stated
[3] = Eterna round: R95, input ligand: FMN 200 uM
[4] = Eterna round: R95, input ligand: none

Sequence | apparent KD of MS2 coat protein [1] [nM] | apparent KD of MS2 coat protein (input ligand: FMN 200 uM) [nM] | apparent KD of MS2 coat protein (input ligand: none) [nM] | also measured
GGGAAACAUGAGGAUCACCCAUGUCAGGAUAUGAUACUAUGUACUUCGGUACAUAGUAUCAGAAGGGACAUCAU [Ex1-3: 13] (puzzle: Exclusion 1) | 79.2 | – | – | –
GAAAAGUGAGGAUAUGGUAAUGUAAGUAUGUAGUAUGUAAUCCAGAAGGCACAUGAGGAUCACCCAUGUAAAAG [Mat - Exclusion 4 - D102] (puzzle: Exclusion 4) | 24.4 | – | – | –
UCGUAGUCAGGAUAUACAUGAGGAUCACCCAUGUAAAAUUUUAAUUUAAUUUUAAGGUGUAGAAGGGACCAGUU [Ex3 #22] (Eterna round: R97, puzzle: Exclusion 3) | – | 43.4 | 51.8 | –
UGAGUGCUGCGAGGAUAUACAUGAGGAUCACCCAUGUAUUAGUGUGAGGCUUUGCCUCACACAAUGUAGAAGGCGCAGUACUCU [JL ENG2 1.03] (Eterna round: R96, puzzle: Exclusion NG 2) | – | 5.74 | 13.1 | apparent KD of MS2 coat protein [2]: 10.3 nM
CUGAGGUAAGGAUAUAGGAGAGAAGAUAAGGUAUGAGAGUUCUAGAAGGUACAUGAGGAUCACCCAUGUUAGGG [JR_Exclu4_Sub087] (puzzle: Exclusion 4) | 252 | – | – | –
UAUUUAAGAGGAUAUACAUGAGGAUCACCCAUGUAAAAUAAAAUAGAUAAUUUUUUAUGUAGAAGGCUUGGGUA [-12.7, -11.42 kcal, A 39%] (Eterna round: R97, puzzle: Exclusion 3) | – | 38.5 | 40 | –
UGCGUUAGAGGAUAUACGUAGAACUAGGUUCAUGUAAAACUACAUGAGGAUCACCCAUGUAGAAGGCUAGCGCU [Mat - Exclusion 2 - JL Mod - D43] (Eterna round: R97, puzzle: Exclusion 2) | – | 20.4 | 15.4 | –
AACUAUGAAGGAUAUACAUGAGGAUCACCCAUGUUGAACUUGGCAUGUGCUCACAGAUGUAGAAGGUCAACCGU [Eternabot (Original) Solution 22] (Eterna round: R97, puzzle: Exclusion 3) | – | 128 | 43 | –
AAUUAUUAUUGAGGAUAUCGUAUUGAAACAAUACGAGAAGGCGGGAUAAACAUGAGGAUCACCCAUGUGAGCCUGAUGCUUGUG [Ex NG1 #41] (Eterna round: R96, puzzle: Exclusion NG 1) | – | – | – | apparent KD of MS2 coat protein [2]: 13.4 nM
UUUUAACAUGAGGAUCACCCAUGUGAGGAUAUCGAAAUUUAUAUUUAUAUUAAUUUUUCGAGAAGGCACAUUUU [JMF 89] (puzzle: Exclusion 1) | 177 | – | – | –
AGUCCUGGAGUUAGGAUAUGGAGUAUCACUGCGCUUCAGAAGGGACUUGAGGAUCACCCAAGUAGCCGUGAGGG [salish99_bmod_ex4_r4_005] (Eterna round: R97, puzzle: Brourd's mod of Exclusion 4) | – | 98.5 | 59.4 | –
UGUACGAUGCGUGCUGACAUGCGUCGUGCAGCAGGUGAUACAUGAGGAUCACCCAUGUCCUCAUUUGCUCGUCUUGA [Mat - Sensor v3 - Turn-off var 2 - D20] (puzzle: Sensor v3, turn-off variant 2) | 475 | – | – | apparent KD of MS2 coat protein [3]: 68.5 nM; apparent KD of MS2 coat protein [4]: 75.2 nM
GUUAACGUAGGAUAUUAGUACAUGAACAUGAGGAUCACCCAUGUGAGGUGGGUCUUAGAUUAAGAAGGGCGAAGAA [EX5 #30] (Eterna round: R97, puzzle: Exclusion 5) | – | 525 | 867 | –
AGCGAAUAGGUAGGAUAUGAGAAUAGAUAGAGCUCAGAAGGACCACAUGAGGAUCACCCAUGUAAAGUCUUGAGGCUGCGUGGU [Prohibition 15 - Jieux - Exclusion NG 1] (Eterna round: R96, puzzle: Exclusion NG 1) | – | 51 | 17.5 | apparent KD of MS2 coat protein [2]: 14.4 nM
AUUAAAAUAUAGGAUAUCGAAUUUAUUAUUUAACGAGAAGGAUGAACAUGAGGAUCACCCAUGUGGUAUCAUGG [Mat - Exclusion 6 - JL Mod - D35] (puzzle: Exclusion 6) | 156 | – | – | apparent KD of MS2 coat protein [3]: 177 nM; apparent KD of MS2 coat protein [4]: 189 nM
ACCUCACAUGAGGAUCACCCAUGUCAGGAUAUUCAAACAGGCGGAACUCCGCCUUCUCGAAGAAGGGACAUUAA [Ontebileza] (Eterna round: R96, puzzle: Exclusion 1) | – | 62.1 | 16.4 | apparent KD of MS2 coat protein [2]: 15.9 nM
UAAUACGAUGUCAGGAUAUGUAAGACACUUGUAACACAGAAGGGACAUGAGGAUCACCCAUGUAAGGGCUCUUC [Rimala] (puzzle: Brourd's mod of Exclusion 4) | 20.4 | – | – | apparent KD of MS2 coat protein [3]: 51.4 nM; apparent KD of MS2 coat protein [4]: 22.6 nM
GCCUCUCAUGUGAGGAUAUCCGGACUAUACAGACAGGAGAAGGCACAUGAGGAUCACCCAUGUCACGCACACUU [BmEX4 B.5] (Eterna round: R97, puzzle: Brourd's mod of Exclusion 4) | – | 27.1 | 189 | –

Sequence | apparent KD of MS2 coat protein [1] [nM] | apparent KD of MS2 coat protein (input ligand: FMN 200 uM) [nM] | apparent KD of MS2 coat protein (input ligand: none) [nM] | also measured
AGUACUAACACGAGAGUGUUAGUACAAUAAGCUUGUGGAACAUGAGGAUCACCCAUGUCCUCAUAAGCUCGUCUUAU [Mat - Sensor v3 - Turn-off var 2 - D99] (puzzle: Sensor v3, turn-off variant 2) | 70.3 | – | – | apparent KD of MS2 coat protein [3]: 15.2 nM; apparent KD of MS2 coat protein [4]: 13.4 nM
GGUGCGUAUGUGAGGAUAUGCUGGUCCUUGGAUCCGCAGAAGGCACAUGAGGAUCACCCAUGUGGUGUCGUACC [salish99_Bmod_Ex4_022] (puzzle: Brourd's mod of Exclusion 4) | 139 | – | – | –
CCAGCAAUUGUCAGGAUAUGCUGGUCCUUGGAUCAGCAGAAGGGACAUGAGGAUCACCCAUGUGGAAAAGCUGG [Eli bmx4 4.64] (Eterna round: R97, puzzle: Brourd's mod of Exclusion 4) | – | 231 | 54.7 | –
GGUGGACAUGAGGAUCACCCAUGUGAGGAUAUCGGCUGUCUACUCGCUGACGGCUGCUCGAGAAGGCGCAUUGU [Exclusion 1 V89] (puzzle: Exclusion 1) | 38.6 | – | – | –
UUAUUACGAGGAUAUCGUUUUUAUCACAUGAGGAUCACCCAUGUAAUUUAUGUUUCGUUUCGAGAAGGCGUUUGUU [JR_E5_Sub067] (puzzle: Exclusion 5) | 23.3 | – | – | –
UGUACUAUGCGUGCUGACAUGCGUAGUGCAGCAGGUGUAACAUGAGGAUCACCCAUGUCCUCAUUUGCUCGUCUUAA [Mat - Sensor v3 - Turn-off var 2 - D14] (puzzle: Sensor v3, turn-off variant 2) | 335 | – | – | apparent KD of MS2 coat protein [3]: 207 nM
AGUCCUAACACGAAAGUGUUAGUACAAUAAGCUUGUGAAACAUGAGGAUCACCCAUGUCCUCAUAAGCUCGUCUUAU [salish99_TOv2_r3_015] (puzzle: Sensor v3, turn-off variant 2) | 896 | – | – | apparent KD of MS2 coat protein [3]: 16.6 nM; apparent KD of MS2 coat protein [4]: 16.9 nM
GAGUUACAUGAGGAUCACCCAUGUGAGGAUAUGAGUCAGUCACGGUGACGUGGCUGACUCAGAAGGCACUAUGG [Mat - Exclusion 1 - JL Mod - D43] (Eterna round: R97, puzzle: Exclusion 1) | – | 52.8 | 233 | –
UGUAGAGUGGUAGGAUAUCCGUCUGUUUCAGUCGGAGAAGGACCACAGUCACUGGGUCCAUGUUUCAUGGAGACCUGAUCUACU [pwkr exNG1 F6.10] (Eterna round: R96, puzzle: Exclusion NG 1) | – | 185 | 195 | apparent KD of MS2 coat protein [2]: 49 nM
GAUCAUGCAGGAUAUACAGUAUCCAUGAAAACAUGGAUCAAACAUGAGGAUCACCCAUGUAGAAGGGCAUGAUC [Omei Ex2 A23] (Eterna round: R97, puzzle: Exclusion 2) | – | 19.1 | 17.9 | –
GUGUGCAGAGGAUAUACAGAGGAAAAGAAAAGAUAAGUGAUACAUGAGGAUCACCCAUGUAGAAGGCUGAGUGU [Excluse me!! 21 - Jieux - Exclusion 2] (puzzle: Exclusion 2) | 21.1 | – | – | apparent KD of MS2 coat protein [3]: 32.8 nM; apparent KD of MS2 coat protein [4]: 22.7 nM
CCGACGUGAGGAUAUCCAUCUGGAUCAGACUAGAUCCUGAUGGAGAAGGCACAUGAGGAUCACCCAUGUCACGG [Eli 4x 4.48] (Eterna round: R97, puzzle: Exclusion 4) | – | 413 | 140 | –
UACUGGACAGGAUAUGUACUUGAGCACUUGAGGAUCACCCAAGUCAUCAAGUACUCAGGCACAGAAGGGUUAAUUU [jl-ex5.4.64 ViennaUCT mod] (Eterna round: R97, puzzle: Exclusion 5) | – | 330 | 129 | –
UAUUAGCAAGCGAGAUCCCACAUGAGGAUCACCCAUGUGCUCGUCUUAUAAGGUACUGUGACGAGAGUCACGGUACC [Mat - Sensor, turn-off var - Eli Mod - D17] (Eterna round: R97, puzzle: Sensor, turn-off variant 1) | – | 16.4 | 13.9 | –
ACAAGCUUUGUUGUGGGUGACAUGAGGAUCACCCAUGUUUGCCGCGUCUUGUGGGCCCGGGCCCGCGGCCCGGGCCC [-42.5, -64.4, A 12%] (Eterna round: R97, puzzle: Sensor, turn-off variant 1) | – | 202 | 173 | –
AGCUAGUCAGGAUAUACGAAAAUGUCAGAAGCUGAGAAGGGACAUGAGGAUCACCCAUGUAGAAGGGACUAGCA [Diamond 37] (Eterna round: R96, puzzle: Exclusion 2) | – | – | – | apparent KD of MS2 coat protein [2]: 48.7 nM
UUAUAAAGAGUGAGGAUAUGCUGGUCCAUGGAUCAGCAGAAGGCACAUGAGGAUCACCCAUGUAAAAUAAUAUU [Mat - Exclusion 4 - JL Mod - D41] (puzzle: Brourd's mod of Exclusion 4) | 18.7 | – | – | –
